In this series the test system is E. necator. Briefly: Leaf disc assay, dry inoculum (settling tower), decrease in disease severity / hyphal growth (Example 2). The following applies: decrease in disease severity (hyphal growth) relative to untreated control, value ± SE; for % decrease =/− SE TP1: time point 1 (untreated control hyphal growth ≥50%); for % decrease =/− SE TP2: time point 2.

B1: GS1867: dsRNA trigger SEQ ID NO 126; gene target hypothetical_protein_BGT96224_Ac30495 (nucleic acid)
chain: AAACCGAAATCTACGACAGGTAAAGCATCACGCAATATAACGGCGAAAGCCCACCTGCTATCACCTACTCTCAACGTCCTACGAAAAGATGTTGTTTTCGAGAAAGCGCTCAGTGACATGCATGGCTCTTCCGATAAATACCTAGATAAAGACTCTAGCATGGAAATTAATATAGGTGATGATATCAGCGAGGGGTCGAATGCGGATCCCTTTGCAGAAGAACTCCCCACGCCATCAATAGCGCCAGATACTGCGGTAGCTACCACACTTAACTTAGCACATGGACAGGACGTGAAAGATAATCACAATGCGGCTAGTCTCATGGATGCAATCAAAGGCCTACTAGACTTGACAAATGATTACTTAAAAAATCTTGAAGCACATCACCCAGGAGTTGGGGCAGACTTCTTAGCGCTTCTAGCGGACGGAGCCTCCCGAGCTATGCGCGGAGAGCGAGTTTATTCTAATACATCAAAAGTATGCGAAGGTAGAAAACAAGGAACACAGGCAACATGGACTGA
For B1, the “% decrease =/− SE TP1” value amounted to 7 ± 4%.

B2: GS1864: dsRNA trigger SEQ ID NO 197; gene target NEDD8-conjugating enzyme UBC12 (nucleic acid)
chain: TTCCAAAAAAAAAACTCATCAGGTTTTTAGAACACAATCAAACGTTTGGCCCTTAATAGTACCGCCAGCCATACTATTTCTAACATTTCTCTTGAATATCTCACGATGATTCCGAAGATCTTCGGCGGCTTCTTTATTCAACGGATCCGAAGAATTTGGCTCTAAAAAGAGAAAAATAATTAAAGAATTCCAGTAGCGAACTAGACCAGAGTAGAGCAGGAAGGAGTATTCGATGATACCTAAAAAAAGACACACACGTTATAAAATGGCTCTAAGAATGGTATTGAGGCTAATGTATATTTTTTTCTTTGAAAAAACAAAAAACAAACAAACAAAAAAATTATGGATAATAAGTAATCCTACCACTACACTCTGTAGATTTAGGACCGGTTTCCAGTCCTCACGCAAGATATTGAGACACACGTTTCCATCAAGATCGATATTTGGATGATAAATCTTTTCTATACATTTTACTTTTGGCGCTTCATGAGGGAAGTTTTGAGAGATAGAAAAAGTGAATTGAAAAC
On to B2, for which the “% decrease =/− SE TP1” value is 5 ± 6% and the “% decrease =/− SE TP2” value came to 3 ± 9%.

B3: GS1865: dsRNA trigger SEQ ID NO 183; gene target Protein transport protein SEC31 (nucleic acid)
chain: TTGAGCTTCTGGGTGTTTTGTAAGAGAGTTTGTGTTAAATAGTGTCTGTATAGAAATTTTGCCATCAAAAGACGCAGTTGCAGAAAGTGCTGGATTATGAGGATGAAATCGAGTCTGAAAGGTCCAGTTTGTAGCTTCAGGAAATTCTCCCAGGAGTTCTCCAAGCTGTGGGTTCCATAAGATAGTTCTATTATCTTTGCCACATGATAACAGCAAATTGCTGTCTTGTTGACACCATGAGATTGATAAAATTCCCTGATTATGGCCTTGTAATGTACATTCTGGTGCATTGGAATTTCGTAAATCCCAAAGAAGAATAACTGGTTTTGTATCATCAGGTGTTGCTGTTAGTAGCTTCGTTGAATTTTCTGGATCCCAAGCAATAGCTCCAACAGCTTTACGATTGTTATTCAAAGTCAATGACGCTTTTTTGGTTTTTAAGTCCCACACTGTAACAAATCCTCCAGTTCCACCAGTAGCCAAAATATGAGGAACTTTCCTATTCCAGGCAACACATTCAAGGTCAT
B3: the “% decrease =/− SE TP1” value was found to be 5 ± 6% and the “% decrease =/− SE TP2” value was 3 ± 10%.

B4: GS1862: dsRNA trigger SEQ ID NO 149; gene target ATP-dependent RNA helicase dbp10 (nucleic acid)
chain: CTGCCTGGAATTTGACAACGCATGTAGGATTTCATTAAGTTGAGTGCTAAATCCCATTTCGAAAAGTCGATCTGCTTCATCAAATACCACATACTTGACCGAGGAAAGGTCTAATGACATTTCAATCTTAAGGTGTAAGAAGCGACCTGGCGTTGCAATAATAATATCAGGGTTGGCTGCCATAAATCTGAATTGATCTTCAAGACTATCTCCCCCTACAAGAAGAACGCATTTGAGATCAGTGCTCCGAGAAAATTCCTTAACGACTTTCAAAGTCTGCAAGGCAAGCTCTCGAGATGGGGATAGAATCAGAGCTCTAGCACCAACTCGAGCACTATGCGCCTTCAACATTTGAATCATCGGAATAACAAAAGCCGCTGTCTTTCCTGAACCGGTTCTAGCCATTCCCACGACATCTTGATGATCAAGAATCAGAGGTATTGTTTTTCTCTGGATTGGAGTCGGAACATTGAAGCCTTTTCTTTTGATGGCTCTCAAAAGATGAGCATCCAAACCCATAGATTGAAAA
Turning to B4, the “% decrease =/− SE TP1” value is 26 ± 4% and the “% decrease =/− SE TP2” value is 29 ± 5%.

B5: GS1866: dsRNA trigger SEQ ID NO 163; gene target Proline-rich protein LAS17 (nucleic acid)
chain: ATATCGGGAGGGGTGGCGGTAATGAGGAAGGCTCTTGAGCTGCTATGAGAGATGGTGATGATTGTGCCTGATGTACTGGAAGTAATGGTAGTGATGATGTTTGAGTAACACGAAGAGATGTTGGCGATGGAGCTGGAGAAACTGAGGGATTTTTTGGTATTTGAGAGACTGTGAAAGATTGAGGTTGTGGACTATTTGGCTCTCTATTCTTTTCACAGTCTCGAGTAGTTATTTGAACACTAGGACGTAACGAGGAAGGAGGCAAAGGAGGTGTTGCTGATGCAGATACTATCGGAATTTTTGGAGGTAATTGGGGAGGAGGGAGATGCTCACTTTTAGCAAGAGGGGTTGTGACTTGGGAAGAACTTGTATGAAAAACACGAGTTAAAGGTGGTATTGTTTCACGTGGTGGTATTAAAGGCCCCGCACGATGTGAAATAAAAGATCCAGTGTTTTTCTCACCTGAAAAAGGTGGTGGTACGTTGAATTTAGAGACGCCCGATTCCGAATTTTCTTTAGAATTTTT
With B5, the “% decrease =/− SE TP1” value is given as 8 ± 5% and the “% decrease =/− SE TP2” value is 13 ± 7%.

B6: GS1863: dsRNA trigger SEQ ID NO 167; gene target Chromatin remodeling factor mit1 (nucleic acid)
chain: TTGAGCCAAAATAAGAAACGACACGTAGCTTTGGAGCCCATTTTTTAATTTCTCGACGCCAATTAAGGCAAGTCGAATTAGGAGCTACAACTAAAAAGGGCCAACATTTCGAGTGATTTTTGACAATTGCTACGATAAAGGCAATAATTTGTATTGTCTTTCCTAAGCCCATCTCATCTGCTAGAATAACATTTTTCTTTTGATGGAAGTTATAAAGTAGCCAATTTAGACCTTCCATTTGATATTGCATCATCTTTCCTCCTGTGAGTTGTAGAGGTTGCTCTTTCATCTCAACTCTTCTTGAAAAATTTAATTTTCGGAACATCTGTAAGCGATGGTCCATAGCTGAAGTTGAGGATTGCCTAAAGTATTTTCCATCAATAAATTCATTATAGGCGGTAATAAAGCTTTGATATCTTTCGATATTCTCAATTTTTGGGGGCTCCATCCATACTGCTTCATCATAAGCAAGACCTTTGAATTTTACAAAGACTTCAGTGATCATATTAGCAGCAGCCTTGTCTATCTT
For the molecule B6, the “% decrease =/− SE TP1” value worked out at 6 ± 5%.
